Tested on: Escherichia coli TOP10
Experiment: shrunken log2 fold change of peptide-encoding DNA abundance (4.5 h post-induction vs induction); higher = less antimicrobial activity (less host growth inhibition)
Conditions: time post-induction: 4.5 h; library: site-saturation at positions 5, 18, 19, 20
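Also: peptides expressed intracellularly from a pBAD plasmid library in pooled LB shake-flask culture, induced with 0.3% L-arabinose, DNA abundance read by NGS, three biological replicates, DESeq2 with apeglm shrinkage.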

| Sequence | shrunken log2 fold change |
| --- | --- |
| RRIRHRPPRLPRPRPRPYVFPRP | -0.508 |
| RRIRHRPPRLPRPRPRPYVKPRP | -0.509 |
| RRIRHRPPRLPRPRPRPYYWPRP | -0.0132 |
| RRIRIRPPRLPRPRPRPAAFPRP | -0.234 |
| RRIRIRPPRLPRPRPRPACWPRP | 0.222 |
| RRIRIRPPRLPRPRPRPAHSPRP | -0.0596 |
| RRIRIRPPRLPRPRPRPAIEPRP | -0.0797 |
| RRIRIRPPRLPRPRPRPAIQPRP | -0.143 |
| RRIRIRPPRLPRPRPRPAKPPRP | 0.297 |
| RRIRIRPPRLPRPRPRPALIPRP | -0.0428 |
| RRIRIRPPRLPRPRPRPALKPRP | -0.0298 |
| RRIRIRPPRLPRPRPRPALWPRP | 0.199 |
| RRIRIRPPRLPRPRPRPAMGPRP | 1.17 |
| RRIRIRPPRLPRPRPRPANFPRP | -0.554 |
| RRIRIRPPRLPRPRPRPANIPRP | -0.383 |
| RRIRIRPPRLPRPRPRPAPGPRP | 0.371 |
| RRIRIRPPRLPRPRPRPAQLPRP | -0.177 |
| RRIRIRPPRLPRPRPRPAQQPRP | -0.0315 |
| RRIRIRPPRLPRPRPRPAQRPRP | 0.0422 |
| RRIRIRPPRLPRPRPRPAQVPRP | -0.00946 |
| RRIRIRPPRLPRPRPRPAREPRP | 0.604 |
| RRIRIRPPRLPRPRPRPARKPRP | 0.462 |
| RRIRIRPPRLPRPRPRPASKPRP | -0.116 |
| RRIRIRPPRLPRPRPRPASYPRP | -0.0337 |
| RRIRIRPPRLPRPRPRPATVPRP | -0.319 |

| Sequence | shrunken log2 fold change |
| --- | --- |
| RRIRIRPPRLPRPRPRPAVLPRP | 0.0102 |
| RRIRIRPPRLPRPRPRPAVRPRP | 0.445 |
| RRIRIRPPRLPRPRPRPAWFPRP | -0.00823 |
| RRIRIRPPRLPRPRPRPAWTPRP | 0.304 |
| RRIRIRPPRLPRPRPRPAYAPRP | -0.197 |
| RRIRIRPPRLPRPRPRPAYQPRP | -0.76 |
| RRIRIRPPRLPRPRPRPCADPRP | -0.289 |
| RRIRIRPPRLPRPRPRPCAEPRP | -0.358 |
| RRIRIRPPRLPRPRPRPCCHPRP | -0.486 |
| RRIRIRPPRLPRPRPRPCCLPRP | -0.478 |
| RRIRIRPPRLPRPRPRPCDGPRP | -0.00133 |
| RRIRIRPPRLPRPRPRPCEAPRP | -0.395 |
| RRIRIRPPRLPRPRPRPCFNPRP | -0.87 |
| RRIRIRPPRLPRPRPRPCFYPRP | -0.694 |
| RRIRIRPPRLPRPRPRPCGEPRP | -0.0104 |
| RRIRIRPPRLPRPRPRPCGWPRP | 0.0831 |
| RRIRIRPPRLPRPRPRPCHEPRP | -0.0297 |
| RRIRIRPPRLPRPRPRPCHHPRP | 0.0314 |
| RRIRIRPPRLPRPRPRPCKCPRP | -0.0887 |
| RRIRIRPPRLPRPRPRPCKKPRP | -0.0718 |
| RRIRIRPPRLPRPRPRPCMIPRP | -0.502 |
| RRIRIRPPRLPRPRPRPCMVPRP | -1.06 |
| RRIRIRPPRLPRPRPRPCPDPRP | -0.127 |
| RRIRIRPPRLPRPRPRPCQAPRP | -0.025 |
| RRIRIRPPRLPRPRPRPCQHPRP | -0.183 |

| Sequence | shrunken log2 fold change |
| --- | --- |
| RRIRIRPPRLPRPRPRPCQRPRP | -0.268 |
| RRIRIRPPRLPRPRPRPCTHPRP | -0.791 |
| RRIRIRPPRLPRPRPRPCTIPRP | -0.25 |
| RRIRIRPPRLPRPRPRPCYEPRP | -0.303 |
| RRIRIRPPRLPRPRPRPCYHPRP | -0.265 |
| RRIRIRPPRLPRPRPRPCYNPRP | -0.329 |
| RRIRIRPPRLPRPRPRPDDKPRP | -0.266 |
| RRIRIRPPRLPRPRPRPDDLPRP | 0.118 |
| RRIRIRPPRLPRPRPRPDDNPRP | -0.27 |
| RRIRIRPPRLPRPRPRPDDRPRP | 0.0115 |
| RRIRIRPPRLPRPRPRPDEVPRP | -0.0316 |
| RRIRIRPPRLPRPRPRPDHMPRP | -0.87 |
| RRIRIRPPRLPRPRPRPDIGPRP | -0.251 |
| RRIRIRPPRLPRPRPRPDITPRP | -0.0982 |
| RRIRIRPPRLPRPRPRPDKGPRP | 0.0101 |
| RRIRIRPPRLPRPRPRPDPPPRP | 0.075 |
| RRIRIRPPRLPRPRPRPDTDPRP | -0.194 |
| RRIRIRPPRLPRPRPRPDVEPRP | -0.054 |
| RRIRIRPPRLPRPRPRPDWEPRP | -0.0114 |
| RRIRIRPPRLPRPRPRPEDDPRP | -0.16 |
| RRIRIRPPRLPRPRPRPEDWPRP | 0.0775 |
| RRIRIRPPRLPRPRPRPEEHPRP | 0.023 |
| RRIRIRPPRLPRPRPRPEEQPRP | 0.0175 |
| RRIRIRPPRLPRPRPRPEFIPRP | -0.00702 |
| RRIRIRPPRLPRPRPRPEFMPRP | -0.25 |

— the supplement of paper PMC9112550, “Optimization of the antimicrobial peptide Bac7 by deep mutational scanning” (BMC Biology, 2022)
